In patent US20210283178A1:

Legend:
[1] = target: SLL-HLA-A2 complex (NY-ESO-1 peptide … loaded on recombinant human HLA-A2:Ig fusion protein, DimerX I) (human); assay: flow cytometry of CAR-T cells incubated with biotinylated SLL-HLA-A2, then streptavidin-APC; 82.6% GFP+ APC- (lower right); untransduced T cells: 0.04% in the upper right quadrant
[2] = target: AIQ-HLA-A2 complex (… peptide loaded on recombinant human HLA-A2:Ig fusion protein, DimerX I) (human); assay: flow cytometry of CAR-T cells incubated with biotinylated AIQ-HLA-A2, then streptavidin-APC; 82.4% GFP+ APC- (lower right); untransduced T cells: 0.00% in the upper right quadrant
[3] = target: HLA-A2 alone (recombinant human HLA-A2:Ig fusion protein, DimerX I, without added peptide) (human); assay: flow cytometry of CAR-T cells incubated with biotinylated HLA-A2, then streptavidin-APC; 82.9% GFP+ APC- (lower right); untransduced T cells: 0.02% in the upper right quadrant

## CD19 CAR expressed on human CD8+ T cells
[1]
  % of cells in the upper right quadrant (GFP+ / streptavidin-APC+): 0.03%
[2]
  % of cells in the upper right quadrant (GFP+ / streptavidin-APC+): 0.17%
[3]
  % of cells in the upper right quadrant (GFP+ / streptavidin-APC+): 0.13%
